Assay [1] deals with dopaminergic neurons of the right substantia nigra pars compacta. Description: 6-OHDA mouse model, number of DA (TH+) neurons. The format is in vivo, mice. How it is done: We aimed at determining whether B08 or D06 anti-CD38 antibodies were neuroprotective in vivo against neurodegeneration induced by oxidative stress. Mouse were administered with 6-hydroxydopamine (6-OHDA) in the right striatum. Since 6-OHDA is an analogue of dopamine, it is transported in dopaminergic neurons through the dopamine transporter, resulting in a specific degeneration and loss of dopaminergic neurons of the right substantia nigra pars compacta. It has been extensively used as a test system for novel symptomatic agents and for assessment of neuroprotective and neurorepair strategies (Galindo et al., 2014. In Kostrzewa (Ed.), Handbook of neurotoxicity (1st Ed., pp. 639-651). New York: Springer-Verlag). Since 6-OHDA is injected unilaterally in the right striatum, left striatum remains unaffected and each mouse is its own control.
Two in vivo mouse models were used: the 6-OHDA mouse model and the MPTP mouse model. For the 6-OHDA mouse model, the intoxication protocol was based on the unilateral stereotaxic intrastriatal injection of 6-OHDA in the right striatum. Intracerebral or intravenous injections of treatments were made either the day before the surgical stereotaxic procedure, concomitantly with 6-OHDA during the surgical stereotaxic procedure, or two days after 6-OHDA injection. Animals were sacrificed 8 days after the surgical stereotaxic procedure.
For unilateral 6-OHDA mouse model, animals were anesthetized using Chloral hydrate (400 mg/kg, i.p.) and placed into a stereotactic frame adapted to mice. The injection was performed using a Hamilton syringe at the following coordinates: AP: […], ML: […], DV: […] (corresponding to the atlas of Franklin and Paxinos, 1997). A total volume of 2.5 μL containing or not 5 μg of 6-OHDA diluted in PBS in the presence or the absence of test treatments was injected. The needle was left in place for 10 min after the injection before retraction.
Mice were sacrificed by cervical dislocation, and beheaded to collect brain and blood samples. The brain was fixed in a paraformaldehyde solution (4%) during 1 day before being soaked in sucrose (30%) during 2 days and then froze at −80° C. for further analysis.
Each brain was sliced using a freezing microtome at −30° C. The thickness of each slice was 20 μm. The slicing was done around the substantia nigra (80 slices from slice 51 to 63 according to Allen Mouse Brain).
Slices were then washed out in PBS and incubated with anti-Tyrosine Hydroxylase to stain dopaminergic neurons (Abcam®) during 2 days, at 4° C., with agitation. Slices were incubated with corresponding secondary antibody in the presence of DAPI (Sigma Aldrich®) to stain cell's nuclei during 2 hours at room temperature, and mounted on gelatin-coated slides.
The slices were imaged using a Nikon TE2000 U equipped with a Hamamatsu ORCE-ER camera or with a Zeiss Axio Vert.A1 equipped with an axiocam 503 mono camera. Image analysis was done using Image J software or Zen (Zeiss®).

The test system of assay [2] is Experimental Autoimmune Encephalomyelitis (EAE) mouse model. In words: EAE mouse model of multiple sclerosis, clinical score. The format is in vivo, mice. The following applies: 15 mg/kg iv at symptom onset (10 days after MOG injection) and at day 20. The text has this:
Multiple sclerosis (MS) is a progressive inflammatory and demyelinating disease of the human central nervous system (CNS) in which an important role for the immune system in the pathogenesis of the disease is suspected (Lassmann, 2008. J Neurol Sci. 274(1-2):45-7). EAE is an induced disease in mice that affects the central nervous system and constitutes a model for human MS. After a subcutaneous injection of an emulsion with a Complete Freund's Adjuvant (CFA) mixed with oligodendrocyte membrane proteins like myelin oligodendrocyte glycoprotein (MOG), an immune response starts in the periphery and, within 2 weeks, causes inflammation in the CNS. In the same time, we can observe, a progressive ascending paralysis (tail to hindlimb to forelimb). To determine whether B08 anti-CD38 antibody could have beneficial effect in this disease, we injected this antibody (15 mg/kg at symptom onset (10 days after MOG injection) and at day 20).
Animals were anesthetized via inhalation with isoflurane (15 min). Mouse were immunized by subcutaneous injection of an emulsion containing 100 μg MOG peptide 35-55 in Complete Freund's Adjuvant and 500 μg HKMT (Heat-killed Mycobacterium tuberculosis) on day 0. Two hours later, animals received an intraperitoneal injection of 500 ng of pertussis toxin on day 0 and day 2. […]
After immunization, animals were daily monitored for weight and clinical symptoms.

B1: Clone B08: anti-human CD38 antibody, HCVR SEQ ID NO: 33 and LCVR SEQ ID NO: 39 (antibody, V domains shown)
VH: EVQLVESGGSLVKPGGSLRLSCAASGFTFSNYYMNWVRQAPGKGLEWISSISGSSRSIYYADFVKGRFTISRDNAKNSLYLQMNSLRAEDTAVYYCVRSSDDYYYDYGMDVWGRGTLVTVSS
VL: QSVLTQPASVSGSPGQSITISCAGTSSDVGGSYSVSWYQQHPGKAPKLMIYDDSNRPSGVSNRFSGSKSGNTASLTISGLQAEDEADYYCSSYTDYSTRVFGGGTKL
modifications: HCVR B08; LCVR B08
On to B1, for which the “protection of dopaminergic neurons of the right substantia nigra pars compacta” value in assay [1] (0.1 mg/kg injected intracerebrally concomitantly with 6-OHDA) is on record as “statistically significantly protected”. For the same molecule, the “neuroprotective effect in 6-OHDA model” value in assay [1] (15 mg/kg iv one day before 6-OHDA injection) is reported as “neuroprotective effect was also observed”. Further, the “neuroprotective activity in 6-OHDA model when degeneration is ongoing” value in assay [1] (15 mg/kg iv two days after 6-OHDA injection) is listed as “strong neuroprotective activity”. In addition, the “clinical score compared with PBS-injected mice” value in assay [2] is on record as “significantly reduced”.

Values taken from patent publication US20220089765A1, “CD31 COMPETITORS AND USES THEREOF” (ENCEFA, priority 2019, published 2022).
